Experiment [1] has as its target XENP38100 (1D2B4). The experiment in a line: Octet. For orientation: Biolayer interferometry detects binding as a change in optical thickness at a sensor tip.
Experiment [2] has as its target XENP38100 (1D2B4). The experiment in a line: Octet. This is another data set of the same source.
The target in experiment [3] is T1, XENP23311 (His-tagged NKG2D-Fc) (human, UniProt P26718 78-216).
T1 chain: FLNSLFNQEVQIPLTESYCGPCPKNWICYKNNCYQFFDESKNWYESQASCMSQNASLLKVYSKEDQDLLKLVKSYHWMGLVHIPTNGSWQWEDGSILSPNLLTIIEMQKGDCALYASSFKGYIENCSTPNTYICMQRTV
Description: Biacore; 1:1 Langmuir. In general terms: SPR reads the build-up and loss of mass on a sensor chip optically.

Experiment [4] deals with T1, XENP23311 (His-tagged NKG2D-Fc). The experiment in a line: Biacore; steady state.
The target of the next experiment is T2, NKG2D (human, UniProt P26718 78-216).
T2 chain: T1 chain

The target in a further experiment is CD16 (UniProt P08637 17-208).
For another experiment, the target named is T3, B7H3 (human, UniProt Q5ZPR3 29-466).
T3 chain: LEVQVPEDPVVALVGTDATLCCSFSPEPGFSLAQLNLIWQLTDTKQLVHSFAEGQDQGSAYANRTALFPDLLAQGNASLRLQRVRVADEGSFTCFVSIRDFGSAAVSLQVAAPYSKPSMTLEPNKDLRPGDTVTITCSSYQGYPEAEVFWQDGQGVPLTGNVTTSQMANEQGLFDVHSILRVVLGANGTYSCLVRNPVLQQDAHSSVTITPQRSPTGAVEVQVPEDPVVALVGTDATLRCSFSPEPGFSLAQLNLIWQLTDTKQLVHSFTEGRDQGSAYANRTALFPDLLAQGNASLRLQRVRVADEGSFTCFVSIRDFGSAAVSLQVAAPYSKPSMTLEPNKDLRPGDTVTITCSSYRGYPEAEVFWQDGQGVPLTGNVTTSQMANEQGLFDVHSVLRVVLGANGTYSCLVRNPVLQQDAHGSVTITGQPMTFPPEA
Description: -; monovalent, 1+1 bispecific format.

Experiment [5] deals with T1, XENP23311 (His-tagged NKG2D-Fc). Description: Octet; bivalent format.

Consider 16 molecules from US20230151095A1 (published 2023).

Positions count from the first letter of the chain named. Read-outs that look alike come from different tables or passages of the source.

Sequence of CD16 (P08637 17-208): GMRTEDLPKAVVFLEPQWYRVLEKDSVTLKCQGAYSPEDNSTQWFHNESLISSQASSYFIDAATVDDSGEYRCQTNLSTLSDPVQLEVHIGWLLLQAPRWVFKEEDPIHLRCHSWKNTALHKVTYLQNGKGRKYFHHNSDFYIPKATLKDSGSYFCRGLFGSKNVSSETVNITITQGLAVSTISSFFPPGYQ

B1: cynomolgus NKG2D (receptor)
chain: T1 chain with D38N, T128I
As to B1, the Kd with XENP38100 (1D2B4) [1] came to 5.05 nM.

B2: human NKG2D (Fc fusion)
chain: T1 chain
Molecule B2 came in with a Kd with XENP38100 (1D2B4) [2] of 10.4 nM.

B3: XENP42653 (bispecific antibody)
heavy: EVQLLESGGGLVQPGGSLRLSCAVSGFSLSSYGVIWVRQAPGKGLEYVSWVSSGGSTNYASSVKGRFTISRDTSKNTVYLQMNSLRAEDTAVYFCARGATNSGTDIWGPGTLVTVSSASTKGPSVFPLAPSSKSTSGGTAALGCLVKDYFPEPVTVSWNSGALTSGVHTFPAVLQSSGLYSLSSVVTVPSSSLGTQTYICNVNHKPSDTKVDKKVEPKSCDKTHTCPPCPAPELLGGPSVFLFPPKPKDTLMISRTPEVTCVVVDVSHEDPEVKFNWYVDGVEVHNAKTKPREEEYNSTYRVVSVLTVLHQDWLNGKEYKCKVSNKALPAPIEKTISKAKGQPREPQVYTLPPSREEMTKNQVSLTCDVSGFYPSDIAVEWESDGQPENNYKTTPPVLDSDGSFFLYSKLTVDKSRWEQGDVFSCSVMHEALHNHYTQKSLSLSPGK
chain: not shown
light: DIVMTQSPSSLSASVGDRVTITCRASQSINSWLSWYQQKPGKPPKLLIYGASNLASGVPSRFKGSGSGTDFTLTISSLQPEDFATYYCQNNYGIIAAGATFGGGTKVEIKRTVAAPSVFIFPPSDEQLKSGTASVVCLLNNFYPREAKVQWKVDNALQSGNSQESVTEQDSKDSTYSLSSTLTLSKADYEKHKVYACEVTHQGLSSPVTKSFNRGEC
Turning to B3, the Kd in experiment [3] was found to be 14800 nM; in experiment [4], 5410 nM.

B4: XENP42654 (bispecific antibody)
heavy: B3 heavy
chain: not shown
light: B3 light
As for B4, the values for the Kd in experiment [3] and in experiment [4] were 360 nM and 190 nM, respectively.

B5: XENP42652 (bispecific antibody)
heavy: B3 heavy
chain: not shown
light: B3 light
With B5, the results for the Kd in experiment [3] and in experiment [4] were 253 nM and 162 nM, respectively.

B6: XENP40376 B7H3 Fab x NKG2D scFv (1+1) (antibody)
chain 1: EVQLLESGGGLVQPGGSLRLSCAVSGFSLSSYGVIWVRQAPGKGLEYVSWVSSGGSTNYASSVKGRFTISRDTSKNTVYLQMNSLRAEDTAVYFCARGATNSGTDIWGPGTLVTVSSASTKGPSVFPLAPSSKSTSGGTAALGCLVKDYFPEPVTVSWNSGALTSGVHTFPAVLQSSGLYSLSSVVTVPSSSLGTQTYICNVNHKPSDTKVDKKVEPKSCDKTHTCPPCPAPPVAGPSVFLFPPKPKDTLMISRTPEVTCVVVDVKHEDPEVKFNWYVDGVEVHNAKTKPREEEYNSTYRVVSVLTVLHQDWLNGKEYKCKVSNKALPAPIEKTISKAKGQPREPQVYTLPPSREEMTKNQVSLTCDVSGFYPSDIAVEWESDGQPENNYKTTPPVLDSDGSFFLYSKLTVDKSRWEQGDVFSCSVMHEALHNHYTQKSLSLSPGK
chain 2: not shown
chain 3: B3 light
B6 returned a Kd in the experiment with NKG2D of 7.72 nM.

B7: XENP40375_H1L1 (antibody)
chain 1: B3 heavy
chain 2: not shown
chain 3: B3 light
As to B7, the Kd in experiment [3] was found to be 15.5 nM; in experiment [4], 19 nM.

B8: XENP42655 (bispecific antibody)
heavy: B3 heavy
chain: not shown
light: B3 light
As to B8, the Kd in experiment [3] was determined as 4190 nM; in experiment [4], 1490 nM.

B9: XENP41023 (antibody)
chain 1: B3 heavy with S239D
chain 2: EVQLLESGGGLVQPGGSLRLSCAVSGFSLSSYGVIWVRQAPGKGLEYVSWVSSGGSTNYASSVKGRFTISRDTSKNTVYLQMNSLRAEDTAVYFCARGATNSGTDIWGPGTLVTVSSGKPGSGKPGSGKPGSGKPGSDIVMTQSPSSLSASVGDRVTITCRASQSINSWLSWYQQKPGKPPKLLIYGASNLASGVPSRFKGSGSGTDFTLTISSLQPEDFATYYCQNNYGIIAAGATFGGGTKVEIKEPKSSDKTHTCPPCPAPELLGGPDVFLFPPKPKDTLMISRTPEVTCVVVDVSHEDPEVKFNWYVDGVEVHNAKTKPREEQYNSTYRVVSVLTVLHQDWLNGKEYKCKVSNKALPAPIEKTISKAKGQPREPQVYTLPPSREQMTKNQVKLTCLVKGFYPSDIAVEWESNGQPENNYKTTPPVLDSDGSFFLYSKLTVDKSRWQQGNVFSCSVMHEALHNHYTQKSLSLSPGK
chain 3: B3 light
As to B9, the Kd with CD16 amounted to 102 nM.

B10: XENP40557 B7H3 Fab x NKG2D scFv (mAb-scFv) (antibody)
chain 1: B6 chain 1
chain 2: not shown
chain 3: B3 light
B10 showed a Kd in the experiment with NKG2D of 28.8 nM.

B11: XENP41036 (antibody)
chain 1: B3 heavy with I332E
chain 2: B9 chain 2
chain 3: B3 light
For the molecule B11, in the experiment with CD16, the Kd was found to be 104 nM.

B12: 2E4A3_H1.22_L1 (antibody, V domains shown)
VH: QVQLVQSGAEVKKPGASVKVSCKASGYIFTNNYMHWVRQAPGQGLEWMGIISPSVGRTAYAQKFQGRVTMTRDTSTSTVYMELSSLRSEDTAVYYCARGGGSSPRLDYWGQGTLVTVSS
VL: not shown
The molecule B12 showed a Kd with B7H3 of 6.1 nM.

B13: 38E2_H2_L1.1 (antibody, V domains shown)
VH: EVQLLESGGGLVQPGGSLRLSCAVSGFSLSSYGVIWVRQAPGKGLEYVSWVSSGGSTNYASSVKGRFTISRDTSKNTVYLQMNSLRAEDTAVYFCARGATNSGTDIWGPGTLVTVSS
VL: DIVMTQSPSSLSASVGDRVTITCRASQSINSWLSWYQQKPGKPPKLLIYGASNLASGVPSRFKGSGSGTDFTLTISSLQPEDFATYYCQNNYGIIAAGATFGGGTKVEIK
The molecule B13 showed a Kd in the experiment with B7H3 of 0.5 nM.

B14: XENP38098 (LB_1002, Bivalent) (antibody, V domains shown)
VH: EVQLVESGGGLVKPGGSLRLSCAASGFTFSSYSMNWVRQAPGKGLEWVSSISSSSSYIYYADSVKGRFTISRDNAKNSLYLQMNSLRAEDTAVYYCARGAPMGAAAGWFDPWGQGTLVTVSS
VL: DIQMTQSPSSVSASVGDRVTITCRASQGISSWLAWYQQKPGKAPKLLIYAASSLQSGVPSRFSGSGSGTDFTLTISSLQPEDFATYYCQQGVSFPRTFGGGTKVEIKR
Take B14: the Kd in experiment [5] turned out to be 0.49 nM.

B15: XENP38097 (LB_1001, Bivalent) (antibody, V domains shown)
VH: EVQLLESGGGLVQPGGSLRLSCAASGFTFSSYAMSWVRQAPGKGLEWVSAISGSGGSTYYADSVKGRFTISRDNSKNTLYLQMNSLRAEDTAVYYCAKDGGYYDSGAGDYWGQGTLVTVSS
VL: B14 VL with S30D, F94Y
In the case of B15, the Kd in experiment [5] came to 0.42 nM.

B16: XENP38093 (1D2B4, Bivalent) (antibody, V domains shown)
VH: EVQLLESGGGLVQPGGSLRLSCAASGFTFSSFGMSWVRQAPGKGLEWVSTISGSGSTTYYADSVKGRFTISRDNSKNTLYLQMNSLRAEDTAVYYCAKGVFSEWHYYFDYWGQGTLVTVSS
VL: not shown
Take B16: in experiment [5], the Kd was 0.52 nM.
